Laboratory results reported in US20220267440A1 (ABSOS, published 2022).

What was measured:
[1] = biological target: T1, recombinant human CD47 (Novoprotein cat no. C321, lot no. 0329689) (human, UniProt Q08722 19-139); assay: SPR summary table, 25 C
T1 construct: Bought reagent
Procedure: (§1) Binding kinetics were measured at 25° C. using a BioRad ProteOn XPR36 optical biosensor equipped with GLM sensor chips and equilibrated with running buffer (HBS, 0.005% TWEEN-20, 0.1 mg/mL BSA, pH 7.4).
(§2) CD47 was tested in a three-fold dilution series starting at 100 nM.

[2] = biological target: T1, recombinant human CD47 (Novoprotein cat …); assay: SPR summary table, 25 C; kd fixed
Procedure: (§3) Affinity was determined for five selected AlivaMab Mouse monoclonal hybridoma supernatants (Biosensor Tools, Salt Lake City, Utah). Binding kinetics were measured at 25° C. using a BioRad ProteOn XPR36 optical biosensor equipped with GLM sensor chips and equilibrated with running buffer (HBS, 0.005% TWEEN-20, 0.1 mg/mL BSA, pH 7.4).
as §2

[3] = biological target: T1, recombinant human CD47 (Novoprotein cat …); assay: SPR, antibodies binned by kd at 25 C (value is the column's head)
Procedure: as §1, §2

[4] = biological target: T1, recombinant human CD47 (Novoprotein cat …); assay: SPR (ProteOn XPR36), mAb captured on anti-mouse Fc, CD47 as analyte, 25 C, 1:1 model
Procedure: as §1, §2

[5] = biological target: T2, recombinant CD47-Fc (Sino Biologics) (human, UniProt Q08722 19-139); assay: competition ELISA: HIS-tagged SIRP α binding to plate-bound CD47-Fc, antibody titrated
T2 construct: Bought reagent; also called human CD47-Fc; not shown: Fc

[6] = biological target: T1, recombinant human CD47 (Novoprotein cat …); assay: SPR summary table, 25 C; dissociation rate constant fixed at 1e-5 s^-1; summary table; kd fixed at 1e-5
Procedure: as §3, §2

[7] = biological target: T1, recombinant human CD47 (Novoprotein cat …); assay: SPR (ProteOn XPR36), mAb captured on anti-mouse Fc, CD47 as analyte, 25 C; kd fixed, KD a rough estimate
Procedure: as §3, §2

[8] = biological target: T1, recombinant human CD47 (Novoprotein cat …); assay: SPR (ProteOn XPR36), mAb captured on anti-mouse Fc, CD47 as analyte, 25 C; no decay detected, kd fixed at 1e-5 in the fit; no decay seen; kd fixed at 1e-5 in the fit
Procedure: as §3, §2

kon [1]: 1.18e+06 M⁻¹ s⁻¹ | Kd [2]: ~9 pM | koff [3]: ≤ 1e-05 s⁻¹ | kon [4]: 1.18e+06 M⁻¹ s⁻¹ | IC50 [5]: 2200 pM | koff [6]: ≤ 1e-05 s⁻¹ | Kd [7]: ≤ 8.5 pM | koff [8]: ≤ 1e-05 s⁻¹
B1: anti-CD47 AlivaMab antibody 139 (antibody, IgG1, V domains shown)
VH: QVQLQESGPGLVKPSETLSLTCTVSGGSISNYYWSWIRQPPGKGLEWIGYIYYSGSTNYNPSLKSRVTISVDTSKNQFSLKLSSVTAADTAVYYCARSRYFDLWGRGTLVTVSS
VL: DIQMTQSPSAMSASVGDRVTITCRASQGISIYLAWFQQKPGKVPKRLIYAASSLQSGVPSRFSGSGSGTEFTLTISSLQPEDFATYYCLQHTSYPYTFGQGTKLEIK
notes: Chimeric AlivaMab Mouse mAb from hybridoma: human V, CH1 and upper hinge, mouse middle hinge, CH2 and CH3, human kappa light chain
